94 variants from the supplement of paper PMC10567573 can be followed below.

B1: PDS5B (parent)
chain: ITYPPGVKEISDKISKEEMVRRLK
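Further: lentivirally expressed fusions sorted by FACS into six bins by GFP to DsRed ratio, PSI derived from sequencing read proportions per bin multiplied by bin number.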

This series covers variants of B1. The experiment in a line: protein stability index of a GFP-peptide fusion (GPS, HEK-293T) (PSI 1-6); higher = more stable. As to conditions: c terminus: a fixed tail appended.
Take ITYPPGVKEISDKISKDEMVRRLK [E17D]: the protein stability index was 3.72.
The result for ITYPPGVKEISDKISKEEAVRRLK [M19A] reads 3.68; that for ITSPPGVKEISDKISKEEMVRRLK [Y3S], 4.43; that for ITTPPGVKEISDKISKEEMVRRLK [Y3T], 3.14.
The result for ITYPPGAKEISDKISKEEMVRRLK [V7A] reads 4.21.
ITYPPGQKEISDKISKEEMVRRLK [V7Q]: the protein stability index amounted to 4.16.
The result for ITYPPGVKEISDKISFEEMVRRLK [K16F] reads 3.
For ITYPPGVKEISDKISCEEMVRRLK [K16C] the value was 3.87; for ITYPPGVKEISDKISGEEMVRRLK [K16G], 2.83; for ITYPPGVKEISDKISNEEMVRRLK [K16N], 2.63.
As for ITYPPGVKEISDKISKEAMVRRLK [E18A], the protein stability index is 4.37.
The result for ITYPPGVKEISDKISKEQMVRRLK [E18Q] reads 4.15.
In the case of ITYPPGVKEISDKISKEIMVRRLK [E18I], the protein stability index turned out to be 2.84.
For ITYPPGVKEISDKISKEHMVRRLK [E18H], the protein stability index is 4.01.
The result for ITYPPGVKEISDKISKEKMVRRLK [E18K] reads 3.17.
With ITYPPGVKEISDKISKEEMMRRLK [V20M], the protein stability index was found to be 3.81.
For ITYPPGVKEISDKISKEEMHRRLK [V20H] the value was 4.19; for ITYPPGVKEISDKISKEEMARRLK [V20A], 3.59.
With ITYPPGVKEISDKISKEEMWRRLK [V20W], the protein stability index amounted to 3.38.
The result for ITYPPGVKEISDKISKEEMPRRLK [V20P] reads 4.26; that for ITYPPGVKEISDKISKEEMVRSLK [R22S], 4.24.
For ITYPPGVKEISDKISKEEMVRYLK [R22Y] the value was 2.95; for ITYPPGVKEISDKISKEEMVRDLK [R22D], 4.92; for ITYPPGVKEISDKISKEEMVRCLK [R22C], 2.9.
Regarding ITYPPGVKEISDKISKEEMVRILK [R22I], the protein stability index was 2.71.
The result for ITYPPGVKEISDKISKEEMVRALK [R22A] reads 3.76.
Regarding IKYPPGVKEISDKISKEEMVRRLK [T2K], the protein stability index came out at 3.55.
For IWYPPGVKEISDKISKEEMVRRLK [T2W], the protein stability index amounted to 3.45.
With IGYPPGVKEISDKISKEEMVRRLK [T2G], the protein stability index was 4.08.
On to ITYPPGVKEISCKISKEEMVRRLK [D12C], for which the protein stability index came out at 3.03.
The result for ITYPPGVKEISNKISKEEMVRRLK [D12N] reads 4.05.
Regarding ITYPPGVKEISWKISKEEMVRRLK [D12W], the protein stability index came to 2.85.
The result for ITYPPGVKEISIKISKEEMVRRLK [D12I] reads 3.04; that for ITYPPGVKEISHKISKEEMVRRLK [D12H], 3.83; that for ITYPPGVKEISDKISKEEMVLRLK [R21L], 4.15.
The result for ITYPPGVKEISDKISKEEMVWRLK [R21W] reads 4.52; that for ITYPPGVKEISDKISKEEMVDRLK [R21D], 4.46; that for ITYPPGVKEISDKISKEEMVGRLK [R21G], 4.75.
For ITYCPGVKEISDKISKEEMVRRLK [P4C] the value was 2.81; for ITYAPGVKEISDKISKEEMVRRLK [P4A], 3.44.
For ITYPPGVPEISDKISKEEMVRRLK [K8P], the protein stability index is 3.69.
Regarding ITYPPGVWEISDKISKEEMVRRLK [K8W], the protein stability index is 3.09.
Regarding ITYPPGVKWISDKISKEEMVRRLK [E9W], the protein stability index was determined as 2.24.
The result for ITYPPGVKKISDKISKEEMVRRLK [E9K] reads 3.66; that for ITYPPGVKTISDKISKEEMVRRLK [E9T], 3.15.
For ITYPPGVKNISDKISKEEMVRRLK [E9N] the value was 3.59; for ITYPPGVKQISDKISKEEMVRRLK [E9Q], 3.35.
For the variant ITYPPGVKMISDKISKEEMVRRLK [E9M], the protein stability index was found to be 3.51.
The result for ITYPPGVKGISDKISKEEMVRRLK [E9G] reads 4.19; that for ITYPPGVKEISDKCSKEEMVRRLK [I14C], 3.27; that for ITYPPGVKEISDKVSKEEMVRRLK [I14V], 4.02.
For ITYPPGVKEISDKASKEEMVRRLK [I14A] the value was 4.5; for ITYPPGVKEISDKSSKEEMVRRLK [I14S], 4.86; for ITYPPGVKEISDKTSKEEMVRRLK [I14T], 4.08.
For ITYPPGVKEISDKISKEEMVRRLV [K24V] the value was 3.61; for ITYPPGVKEISDKISKEEMVRRLW [K24W], 2.72; for ITYPPGVKEISDKISKEEMVRRLC [K24C], 3.13.
For ITYPPGVKEISDKIQKEEMVRRLK [S15Q], the protein stability index is 3.65.
On to ITYPPGVKEISDKICKEEMVRRLK [S15C], for which the protein stability index was 3.23.
The result for ITYPPGVKEISDKIFKEEMVRRLK [S15F] reads 2.33; that for ITYPPSVKEISDKISKEEMVRRLK [G6S], 3.96.
For ITYPPCVKEISDKISKEEMVRRLK [G6C] the value was 2.19; for ITYPPRVKEISDKISKEEMVRRLK [G6R], 4; for ITYPPMVKEISDKISKEEMVRRLK [G6M], 3.33.
For ITYPPIVKEISDKISKEEMVRRLK [G6I] the value was 3.55; for ITYPPNVKEISDKISKEEMVRRLK [G6N], 3.54; for ITYPPYVKEISDKISKEEMVRRLK [G6Y], 2.88.
As to ITYPPDVKEISDKISKEEMVRRLK [G6D], the protein stability index was determined as 4.43.
Regarding ITYPPFVKEISDKISKEEMVRRLK [G6F], the protein stability index worked out at 3.31.
The result for ITYPPGVKELSDKISKEEMVRRLK [I10L] reads 4.33.
The result for ITYPPGVKERSDKISKEEMVRRLK [I10R] reads 3.74; that for ITYPPGVKEGSDKISKEEMVRRLK [I10G], 4.61.
Consider ITYPPGVKEASDKISKEEMVRRLK [I10A], for which the protein stability index came to 4.03.
For the variant TTYPPGVKEISDKISKEEMVRRLK [I1T], the protein stability index worked out at 4.96.
The result for ETYPPGVKEISDKISKEEMVRRLK [I1E] reads 4.74.
The result for MTYPPGVKEISDKISKEEMVRRLK [I1M] reads 4.9; that for VTYPPGVKEISDKISKEEMVRRLK [I1V], 4.62; that for NTYPPGVKEISDKISKEEMVRRLK [I1N], 5.13.
For ITYPQGVKEISDKISKEEMVRRLK [P5Q] the value was 4.17; for ITYPSGVKEISDKISKEEMVRRLK [P5S], 4.45; for ITYPFGVKEISDKISKEEMVRRLK [P5F], 3.79.
Turning to ITYPKGVKEISDKISKEEMVRRLK [P5K], the protein stability index amounted to 3.74.
The result for ITYPPGVKEISDKISKEEMVRRHK [L23H] reads 4.08; that for ITYPPGVKEISDKISKEEMVRRNK [L23N], 4.49.
The result for ITYPPGVKEISDCISKEEMVRRLK [K13C] reads 2.79.
For ITYPPGVKEISDQISKEEMVRRLK [K13Q] the value was 4.33.
Turning to ITYPPGVKEISDIISKEEMVRRLK [K13I], the protein stability index turned out to be 4.1.
For ITYPPGVKEISDPISKEEMVRRLK [K13P] the value was 4.52.
As for ITYPPGVKEISDYISKEEMVRRLK [K13Y], the protein stability index came to 3.38.
For ITYPPGVKEISDFISKEEMVRRLK [K13F] the value was 3.42.
As for ITYPPGVKEISDEISKEEMVRRLK [K13E], the protein stability index turned out to be 4.34.
For ITYPPGVKEILDKISKEEMVRRLK [S11L], the protein stability index was 2.38.
For ITYPPGVKEINDKISKEEMVRRLK [S11N] the value was 3.98; for ITYPPGVKEIEDKISKEEMVRRLK [S11E], 4.04.
